Assay results reported in patent US20190375855A1 (Memorial Sloan Kettering, published 2019).

Biological target: T1, Trp1 as expressed by B16 melanoma cells (UniProt P07147 25-537, limits assumed)
T1 construct: whole, on cells; also called Tyrosinase-related protein 1; TYRP1
Assay: flow cytometry on permeabilized B16 cells, detection with anti-mouse IgG PE
From the text: FIG. 2 depicts Trp1 expression profile. B16, B78H1, and B78H1 engineered to express Trp1 on the surface were stained with TA99, TA99 single chain variable region fused to an Fc domain, or isotype control. The cell lines were washed and stained with anti-mouse IgG PE and further analyzed by flow cytometry. B16 was permeabilized before staining since the level of Trp1 expression is suboptimal in the surface in vitro.
An scFv that specifically binds to a mouse Trp1 polypeptide and a human Trp1 polypeptide was generated from a murine monoclonal antibody TA99 that was generated from the TA99 antibody disclosed in International Patent Publication No. WO96/40249. This scFv was cloned into an eGFP cassette. The binding specificity of this scFv to the Trp1 polypeptide was evaluated using a soluble protein comprising this scFv and a Fc domain fused to the scFv. The binding specificity of the scFv-Fc fusion protein to B16 melanoma cells (expressing Trp1), a B16 variant B78H1 (not expressing Trp1), and B78H1-Trp1 (B78H1 engineered to express TRP1 on the surface) was evaluated by flow cytometry. […]

B1: soluble protein comprising the TA99-derived scFv and a Fc domain fused to the scFv (Fc fusion, not shown: a dimerising Fc or GST)
scFv: EVQLQQSGAELVRPGALVKLSCKTSGFNIKDYFLHWVRQRPDQGLEWIGWINPDNGNTVYDPKFQGTASLTADTSSNTVYLQLSGLTSEDTAVYFCTRRDYTYEKAALDYWGQGASVIVSSGGGGSGGGGSGGGGSAFQMSQSPASLSASVGETVTITCRASGNIYNYLAWYQQKQGKSPHLLVYDAKTLADGVPSRFSGSGSGTQYSLKISSLQTEDSGNYYCQHFWSLPFTFGSGTKLEIKAAA
notes: also called scFv-Fc fusion protein; TA99 single chain variable region fused to an Fc domain
B1: binds.
